B1: Azoarcus group I ribozyme (parent)
chain: GUGCCUUGCGCCGGGAAACCACGCAAGGGAUGGUGUCAAAUUCGGCGAAACCUAAGCGCCCGCCCGGGCGUAUGGCAACGCCGAGCCAAGCUUCGGCGCCUGCGCCGAUGAAGGUGUAGAGACUAGACGGCACCCACCUAAGGCAAACGCUAUGGUGAAGGCAUAGUCCAGGGAGUGGCGAAAGUCACACAAACCGG

The data set covers variants of B1. In words: reverse-splicing fitness (ratio to wild type); higher = more active; in vitro selection; Mg2+ level not given. The essentials:
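An in vitro group I ribozyme library with randomized positions was T7-transcribed and gel-purified. In triplicate, 10 pmol RNA in EPPS pH 7.5 was reacted with 50 pmoles of a 30-nt RNA substrate for 1 h at 37 °C across several added MgCl2 levels (1–48 mM), then stopped with EDTA. Products were reverse transcribed from a substrate-complementary primer, PCR-amplified and sequenced (HiSeq 4000). Fitness is a variant's read proportion after selection over that before, normalised to wild type.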
With GUGCCUUGCGCCGGGAAACCACGCAAGGGAUGGUGUCAAAUUCGGCGAAACCUAAGCGCCCGCCCGGGCGUAUGGCAACGCUGAGCCAAGCUUCGGCGCCUGCGCCGAUGAAGGUGUAGCGACUAGACGGCACCCACCUAAGGCCAACGUUAUGGUGAAGGCAUAGUCCAGGGAGAGGCGAAAGUCACACAAACCGG [C82U A120C A145C C150U U176A], the reverse-splicing fitness was found to be 0.0173. As to GUGCCUUGCGCCGGGAAACCACGCAAGGGAUGGUGUCAAAUUCGGCGAAACCUAAGCGCCCGCCCGGGCGUAUGGCAACGCUGAGCCAAGCUUCGGCGCCUGCGCCGAUGAAGGUGUAGCGACUAGACGGCACCCACCUAAGGCCAACGUUAUGGUGAAGGCAUAGUCCAGGGAGCGGCGAAAGUCACACAAACCGG [C82U A120C A145C C150U U176C], the reverse-splicing fitness was 0.0218. Consider GUGCCUUGCGCCGGGAAACCACGCAAGGGAUGGUGUCAAAUUCGGCGAAACCUAAGCGCCCGCCCGGGCGUAUGGCAACGCUGAGCCAAGCUUCGGCGCCUGCGCCGAUGAAGGUGUAGCGACUAGACGGCACCCACCUAAGGCCAACGUUAUGGUGAAGGCAUAGUCCAGGGAGGGGCGAAAGUCACACAAACCGG [C82U A120C A145C C150U U176G], for which the reverse-splicing fitness amounted to 0.00608. Consider GUGCCUUGCGCCGGGAAACCACGCAAGGGAUGGUGUCAAAUUCGGCGAAACCUAAGCGCCCGCCCGGGCGUAUGGCAACGCUGAGCCAAGCUUCGGCGCCUGCGCCGAUGAAGGUGUAGCGACUAGACGGCACCCACCUAAGGCCAACGCUAUGGUGAAGGCAUAGUCUAGGGAGGGGCGAAAGUCACACAAACCGG [C82U A120C A145C C169U U176G], for which the reverse-splicing fitness stood at 0.00368. On to GUGCCUUGCGCCGGGAAACCACGCAAGGGAUGGUGUCAAAUUCGGCGAAACCUAAGCGCCCGCCCGGGCGUAUGGCAACGCUGAGCCAAGCUUCGGCGCCUGCGCCGAUGAAGGUGUAGCGACUAGACGGCACCCACCUAAGGCCAACGCUAUGGUGAAGGCAUAGUCUAGGGAGAGGCGAAAGUCACACAAACCGG [C82U A120C A145C C169U U176A], for which the reverse-splicing fitness was 0.0191. For the variant GUGCCUUGCGCCGGGAAACCACGCAAGGGAUGGUGUCAAAUUCGGCGAAACCUAAGCGCCCGCCCGGGCGUAUGGCAACGCUGAGCCAAGCUUCGGCGCCUGCGCCGAUGAAGGUGUAGCGACUAGACGGCACCCACCUAAGGCCAACGCUAUGGUGAAGGCAUAGUCUAGGGAGCGGCGAAAGUCACACAAACCGG [C82U A120C A145C C169U U176C], the reverse-splicing fitness is 0.0127.

As to GUGCCUUGCGCCGGGAAACCACGCAAGGGAUGGUGUCAAAUUCGGCGAAACCUAAGCGCCCGCCCGGGCGUAUGGCAACGCUGAGCCAAGCUUCGGCGCCUGCGCCGAUGAAGGUGUAGCGACUAGACGGCACCCACCUAAGGCCAACGUUAUGGUGAAGGCAUAGUCUAGGGAGAGGCGAAAGUCACACAAACCGG [C82U A120C A145C C150U C169U U176A], the reverse-splicing fitness came to 0.0137. Turning to GUGCCUUGCGCCGGGAAACCACGCAAGGGAUGGUGUCAAAUUCGGCGAAACCUAAGCGCCCGCCCGGGCGUAUGGCAACGCUGAGCCAAGCUUCGGCGCCUGCGCCGAUGAAGGUGUAGCGACUAGACGGCACCCACCUAAGGCCAACGUUAUGGUGAAGGCAUAGUCUAGGGAGCGGCGAAAGUCACACAAACCGG [C82U A120C A145C C150U C169U U176C], the reverse-splicing fitness was 0.0109. As for GUGCCUUGCGCCGGGAAACCACGCAAGGGAUGGUGUCAAAUUCGGCGAAACCUAAGCGCCCGCCCGGGCGUAUGGCAACGCUGAGCCAAGCUUCGGCGCCUGCGCCGAUGAAGGUGUAGCGACUAGACGGCACCCACCUAAGGCCAACGUUAUGGUGAAGGCAUAGUCUAGGGAGGGGCGAAAGUCACACAAACCGG [C82U A120C A145C C150U C169U U176G], the figure is 0.00398. As to GUGCCUUGCGCCGGGAAACCACGCAAGGGAUGGUGUCAAAUUCGGCGAAACCUAAGCGCCCGCCCGGGCGUAUGGCAACGCUGAGCCAAGCUUCGGCGCCUGCGCCGAUGAAGGUGUAGCGACUAGACGGCACCCACCUAAGGCCAACGCUAUGGUGAAGGCAUAGUCAAGGGAGAGGCGAAAGUCACACAAACCGG [C82U A120C A145C C169A U176A], the reverse-splicing fitness was 0.00575.

As for GUGCCUUGCGCCGGGAAACCACGCAAGGGAUGGUGUCAAAUUCGGCGAAACCUAAGCGCCCGCCCGGGCGUAUGGCAACGCUGAGCCAAGCUUCGGCGCCUGCGCCGAUGAAGGUGUAGCGACUAGACGGCACCCACCUAAGGCCAACGCUAUGGUGAAGGCAUAGUCAAGGGAGGGGCGAAAGUCACACAAACCGG [C82U A120C A145C C169A U176G], the reverse-splicing fitness is 0.00299.

Regarding GUGCCUUGCGCCGGGAAACCACGCAAGGGAUGGUGUCAAAUUCGGCGAAACCUAAGCGCCCGCCCGGGCGUAUGGCAACGCUGAGCCAAGCUUCGGCGCCUGCGCCGAUGAAGGUGUAGCGACUAGACGGCACCCACCUAAGGCCAACGCUAUGGUGAAGGCAUAGUCAAGGGAGCGGCGAAAGUCACACAAACCGG [C82U A120C A145C C169A U176C], the reverse-splicing fitness was found to be 0.00368. Take GUGCCUUGCGCCGGGAAACCACGCAAGGGAUGGUGUCAAAUUCGGCGAAACCUAAGCGCCCGCCCGGGCGUAUGGCAACGCUGAGCCAAGCUUCGGCGCCUGCGCCGAUGAAGGUGUAGCGACUAGACGGCACCCACCUAAGGCCAACGUUAUGGUGAAGGCAUAGUCGAGGGAGUGGCGAAAGUCACACAAACCGG [C82U A120C A145C C150U C169G]: the reverse-splicing fitness is 0.00596. Consider GUGCCUUGCGCCGGGAAACCACGCAAGGGAUGGUGUCAAAUUCGGCGAAACCUAAGCGCCCGCCCGGGCGUAUGGCAACGCUGAGCCAAGCUUCGGCGCCUGCGCCGAUGAAGGUGUAGCGACUAGACGGCACCCACCUAAGGCCAACGUUAUGGUGAAGGCAUAGUCAAGGGAGUGGCGAAAGUCACACAAACCGG [C82U A120C A145C C150U C169A], for which the reverse-splicing fitness turned out to be 0.00607. As for GUGCCUUGCGCCGGGAAACCACGCAAGGGAUGGUGUCAAAUUCGGCGAAACCUAAGCGCCCGCCCGGGCGUAUGGCAACGCUGAGCCAAGCUUCGGCGCCUGCGCCGAUGAAGGUGUAGCGACUAGACGGCACCCACCUAAGGCCAACGUUAUGGUGAAGGCAUAGUCUAGGGAGUGGCGAAAGUCACACAAACCGG [C82U A120C A145C C150U C169U], the figure is 0.0104.

The values above are taken from the RNAGym collection of RNA variant scans (doi:10.1093/molbev/msab373).
